The text below walks through data of PMC11564776, “Enzyme stabilisation due to incorporation of a fluorinated non-natural amino acid at the protein surface” (Scientific Reports, 2024).

Substrate in this data set: O=CCO
Nature of the data set: HPLC of erythrulose formation, initial velocities, Michaelis-Menten fit. It counts as biochemical, Escherichia coli. Particulars: 50 mM HPA, 1.36 mM ThDP, 5.1 mM MgCl2, 33 mM Tris.HCl, pH 7.0, assay 21 °C, pre-incubated 15 min at 21 °C, standard error in parentheses. From the text: HPLC of erythrulose formation, initial velocities, Michaelis-Menten fit on WT transketolase (WT TK)

B1: WT transketolase (WT TK) (Escherichia coli K-12) (protein)
chain: MSSRKELANAIRALSMDAVQKAKSGHPGAPMGMADIAEVLWRDFLKHNPQNPSWADRDRFVLSNGHGSMLIYSLLHLTGYDLPMEELKNFRQLHSKTPGHPEVGYTAGVETTTGPLGQGIANAVGMAIAEKTLAAQFNRPGHDIVDHYTYAFMGDGCMMEGISHEVCSLAGTLKLGKLIAFYDDNGISIDGHVEGWFTDDTAMRFEAYGWHVIRDIDGHDAASIKRAVEEARAVTDKPSLLMCKTIIGFGSPNKAGTHDSHGAPLGDAEIALTREQLGWKYAPFEIPSEIYAQWDAKEAGQAKESAWNEKFAAYAKAYPQEAAEFTRRMKGEMPSDFDAKAKEFIAKLQANPAKIASRKASQNAIEAFGPLLPEFLGGSADLAPSNLTLWSGSKAINEDAAGNYIHYGVREFGMTAIANGISLHGGFLPYTSTFLMFVEYARNAVRMAALMKQRQVMVYTHDSIGLGEDGPTHQPVEQVASLRVTPNMSTWRPCDQVESAVAWKYGVERQDGPTALILSRQNLAQQERTEEQLANIARGGYVLKDCAGQPELIFIATGSEVELAVAAYEKLTAEGVKARVVSMPSTDAFDKQDAAYRESVLPKAVTARVAVEAGIADYWYKYVGLNGAIVGMTTFGESAPAELLFEEFGFTVDNVVAKAKELL
notes: full length, N-terminal His6 tag (plasmid pQR791), Ni-NTA purified, tag cleavage not mentioned; homodimer of 73-74 kDa monomers; WT expressed in E. coli XL10-Gold, variants in E. coli C321.dA.exp
In the case of B1, the Km was 22 (3) mM; the maximal velocity (Vmax) – broadly, the rate approached at saturating substrate – stood at 4600 µM/min; the kcat (commonly the number of substrate molecules converted per active site and unit of time at saturation) came to 53.3 s⁻¹; the catalytic efficiency (kcat/Km) (usually the turnover number divided by the Michaelis constant) came out at 2500 M⁻¹ s⁻¹.
